Results reported in patent US20240189408A1, “COMPOSITIONS AND METHODS FOR REDUCING METHANE EMISSIONS IN RUMINANT POPULATIONS” (Arkea Bio Corp., priority 2022, published 2024).
Several values for one entry are separate records, joined by “and”; a condition that tells them apart may be missing. Identical values can stand only once.

Key:
[1] = LNP encapsulation efficiency, RiboGreen assay; type: physicochemical; settings: mRNA LNPs, Example 6
Description: (§1) To prepare lipid nanoparticles (LNPs), the mRNA stocks were thawed on ice. Nucleic acid concentrations were validated by absorbance at 260 nm using a NanoDrop. The mRNAs were then diluted to a final concentration of 0.35 mg/mL mRNA in Precision Nanosystem's dilution buffer. 10 mL of the dilute mRNAs were loaded into separate Luer lock syringes and all bubbles were removed by gentle tapping. A NanoAssemblr Ignite NxGen Cartridge was loaded into the cartridge slot of the Ignite instrument (FIG. 8A, 801) and one mRNA syringe was attached to the aqueous inlet of the cartridge. 3.3 mL of Genvoy-ILM reagent was loaded into a separate Luer lock syringes and all bubbles were removed by gentle tapping. The Genvoy-ILM syringe was then attached to the organic inlet of the cartridge. LNPs were then generated and collected into a 15 mL conical tube. The process was repeated for the remaining two mRNAs and for a buffer only LNP control (empty). Immediately after LNPs were generated, the samples were loaded into 10K dialysis cartridges, submerged into 1×DPBS (Ca^2+ and Mg^2+-free) to reduce the ethanol concentration to <0.5%. After dialysis the LNPs were recovered from the dialysis cartridges and sterile filtered at 0.2 um. Size and polydispersity (FIG. 8A, 802) were measured using a Malvern Panalytical DLS by diluting 40 uL of LNPs into 360 uL of 1×DPBS. […] Encapsulation efficiency was measured using a RiboGreen assay following Precision Nanosystems recommended protocol using a BioTek Synergy H1 Plate Reader. The resultant encapsulation efficiencies are shown in Table 14, with an average of ˜85%.
(§2) To prepare lipid nanoparticles (LNPs), the mRNA stocks were thawed on ice. Nucleic acid concentrations were validated by absorbance at 260 nm using a NanoDrop. The mRNAs were then diluted to a final concentration of 0.35 mg/mL mRNA in Precision Nanosystem's dilution buffer. 10 mL of the dilute mRNAs were loaded into separate Luer lock syringes and all bubbles were removed by gentle tapping. A NanoAssemblr Ignite NxGen Cartridge was loaded into the cartridge slot of the Ignite instrument and one mRNA syringe was attached to the aqueous inlet of the cartridge. 3.3 mL of Genvoy-ILM reagent was loaded into a separate Luer lock syringes and all bubbles were removed by gentle tapping. The Genvoy-LM syringe was then attached to the organic inlet of the cartridge. LNPs were then generated and collected into a 15 mL conical tube. The process was repeated for the remaining mRNAs and for a buffer only LNP control (empty). Immediately after LNPs were generated, the samples were loaded into 10K dialysis cartridges, submerged into Ix DPBS (Ca^2+ and Mg^2+-free) to reduce the ethanol concentration to <0.5%. After dialysis the LNPs were recovered from the dialysis cartridges and sterile filtered at 0.2 um. Size and polydispersity (FIG. 12 and FIG. 13) were measured using a Malvern Panalytical DLS by diluting 40 uL of LNPs into 360 uL of 1×DPBS. […] Encapsulation efficiency was measured using a RiboGreen assay following Precision Nanosystems recommended protocol using a BioTek Synergy H1 Plate Reader. The resultant encapsulation efficiencies are shown in Table 18, with an average of ˜60%.
(§3) To prepare lipid nanoparticles (LNPs), the mRNA stocks are thawed on ice. Nucleic acid concentrations are validated by absorbance at 260 nm using a NanoDrop. The mRNAs are then diluted to a final concentration of 0.35 mg/mL mRNA in Precision Nanosystem's dilution buffer. 10 mL of the dilute mRNAs are loaded into separate Luer lock syringes and all bubbles are removed by gentle tapping. A NanoAssemblr Ignite NxGen Cartridge is loaded into the cartridge slot of the Ignite instrument and one mRNA syringe is attached to the aqueous inlet of the cartridge. 3.3 mL of Genvoy-ILM reagent is loaded into a separate Luer lock syringes and all bubbles are removed by gentle tapping. The Genvoy-ILM syringe is then attached to the organic inlet of the cartridge. […]

total IgG = assay: Total sera IgG by radial immunodiffusion after IM or SQ vaccination with OVA mRNA LNPs; type: in vivo, dairy cows; settings: for Serum IgG Concentration: one line per animal replicate
Description: (§4) Bovine nucleic acid vaccination protocols (SQ and IM) were assessed in vivo in the dairy cows through the quantification of the adaptive immune response following inoculation with ovalbumin (OVA). Immune response was assessed by quantifying total IgG and OVA-specific IgG over a 28-day period after vaccination. Both SQ and IM vaccination provided a robust immune response, with IM vaccination providing a higher total immune response than SQ vaccination.
(§5) Dairy cows were dried off for a period of eight days prior to vaccination. Each vaccine formulation was administered either by IM or SQ injection to three animals. In total, 15 animals were vaccinated with LNPs containing mRNA and 6 animals were vaccinated with empty LNPs. Intramuscular injections were delivered into the cow's right neck muscle by veterinary-trained staff using an 18-gauge 1-1.5″ needle. Subcutaneous injections were delivered into the cow's right shoulder by veterinary-trained staff using an 18-gauge 0.5-0.75″ needle. Total blood samples (˜20 mL) were collected by veterinary-trained staff. Samples were collected into 10 mL vacutainer tubes (2×10 mL) from the coccygeal vein (tail vein) by needle puncture. Harvested blood samples were then processed via ultracentrifugation for serum collection. Isolated serum samples were aliquoted, labeled and stored in cryogenic tubes at −20° C. until use.
Sera samples were thawed on ice and total IgG was quantified using Triple J Farms' Ig Radial Immunodiffusion (RID) kits (Cat No. 728411) following the manufacturers recommended protocol.

[2] = LNP size and polydispersity by DLS (Malvern Panalytical); type: physicochemical; settings: mRNA LNPs, Example 6
Description: as §1, §2, §3

ovalbumin (OVA) = assay: OVA-specific IgG ELISA of sera after IM or SQ vaccination; type: in vivo, dairy cows; settings: one line per animal replicate
Description: as §4, §5
Sera samples were thawed on ice and total IgG was quantified using NovateinBio's Bovine OVA sIgG Antibody ELISA Kit (Cat No. BG-BVN11731) following the manufacturer's recommended protocol. Each of the animals vaccinated with a construct show a demonstrable OVA-specific IgG response over the 28-day test period.

B1: ARK011: mRNA: SP + Ova + TM/C, membrane-anchored OVA; SEQ ID NO: 16673 (nucleic acid)
chain: ATGTTCGTGTTCCTCGTGCTCCTGCCCCTCGTCTCCAGCCAGTGCGTGGGGTCCATAGGGGCTGCTTCTATGGAGTTCTGTTTTGATGTTTTCAAGGAACTGAAGGTTCACCATGCTAACGAGAACATCTTTTACTGTCCAATAGCCATCATGAGTGCGCTTGCTATGGTTTATTTGGGTGCAAAAGATTCTACTCGCACTCAGATTAATAAGGTCGTTAGATTCGACAAGCTTCCAGGGTTTGGAGACAGTATTGAGGCCCAATGTGGAACGTCAGTCAACGTCCATTCTTCTCTGCGGGACATTCTCAACCAAATAACGAAGCCAAACGACGTGTATTCCTTCTCACTCGCGTCACGGCTGTATGCTGAAGAAAGGTATCCTATCTTGCCAGAATATCTCCAGTGCGTCAAGGAGTTGTATCGAGGCGGACTGGAACCGATCAACTTTCAGACTGCAGCCGACCAGGCCCGCGAACTGATCAACAGCTGGGTCGAGTCTCAGACCAATGGGATCATACGCAATGTGTTGCAACCGAGTAGTGTCGACTCTCAGACGGCTATGGTCTTGGTGAACGCTATAGTCTTCAAAGGTCTGTGGGAGAAGACCTTCAAGGATGAAGACACACAAGCGATGCCATTCAGAGTCACCGAACAAGAAAGCAAACCCGTCCAAATGATGTACCAAATTGGGCTTTTTCGGGTGGCCTCTATGGCCTCTGAGAAAATGAAAATATTGGAACTGCCCTTCGCCAGCGGCACAATGAGTATGTTGGTCCTTCTTCCAGATGAAGTCTCAGGTCTCGAACAGCTTGAGTCTATCATTAACTTTGAGAAACTCACTGAATGGACTTCTTCCAATGTGATGGAAGAACGAAAAATCAAAGTCTACCTGCCCCGAATGAAGATGGAAGAGAAATATAATTTGACATCAGTTCTGATGGCCATGGGAATCACAGACGTGTTTTCATCCTCTGCGAATCTGTCTGGCATATCTTCCGCAGAATCTCTCAAGATCAGTCAAGCCGTCCACGCGGCCCATGCTGAGATAAATGAGGCGGGCAGAGAGGTGGTGGGGTCCGCCGAAGCTGGAGTCGACGCAGCTTCTGTCAGTGAAGAATTTAGGGCCGATCATCCTTTCCTGTTCTGCATAAAGCACATAGCTACGAACGCTGTGCTTTTCTTTGGCAGATGCGTTTCTCCACCCTGGTACATCTGGCTGGGCTTCATCGCAGGACTGATCGCCATCGTCATGGTCACCATAATGCTCTGTTGCATGACCTCCTGCTGTAGCTGCCTGAAAGGCTGTTGCAGCTGCGGGAGCTGCTGCAAATTCGACGAAGACGATAGCGAACCTGTGCTCAAAGGGGTGAAGTTGCATTACACATAGTGA
modifications: listed as DNA
Encapsulation efficiency [1]: 83%
Serum IgG Concentration (total IgG; IM injection, Day 0, dairy cows, dose 348-468 ug): 5,261 mg/dL and 5,203 mg/dL and 6,150 mg/dL
Serum IgG Concentration (total IgG; IM injection, Day 14, dairy cows, dose 348-468 ug): 4,902 mg/dL and 5,664 mg/dL and 6,716 mg/dL
Serum IgG Concentration (total IgG; IM injection, Day 28, dairy cows, dose 348-468 ug): 3,702 mg/dL and 4,145 mg/dL and 3,794 mg/dL
Serum IgG Concentration (total IgG; SQ injection, Day 0, dairy cows, dose 353-468 ug): 4,956 mg/dL and 5,599 mg/dL and 4,964 mg/dL
Serum IgG Concentration (total IgG; SQ injection, Day 14, dairy cows, dose 353-468 ug): 4,815 mg/dL and 4,777 mg/dL and 6,139 mg/dL
Serum IgG Concentration (total IgG; SQ injection, Day 21, dairy cows, dose 353-468 ug): 5,722 mg/dL and 4,034 mg/dL and 7,379 mg/dL
Serum IgG Concentration (total IgG; SQ injection, Day 28, dairy cows, dose 353-468 ug): 4,877 mg/dL and 4,344 mg/dL and 3,730 mg/dL
total sera IgG immune response, treated groups normalized against the empty groups (total IgG; dairy cows, 3 animals per construct, 28-day test period, FIG. 9): robust and prolonged immune response across all 3 animals
PDI [2]: 0.1665
Z-avg. [2]: 97.79 nm·days
OVA-specific IgG, Absorbance (OD450) (ovalbumin (OVA); IM injection, Day 0, dairy cows): 0.327 OD450 and 0.591 OD450 and 1.937 OD450
OVA-specific IgG, Absorbance (OD450) (ovalbumin (OVA); IM injection, Day 14, dairy cows): 0.64 OD450 and 0.616 OD450 and 1.817 OD450
OVA-specific IgG, Absorbance (OD450) (ovalbumin (OVA); IM injection, Day 21, dairy cows): 0.757 OD450 and 0.513 OD450 and 2.024 OD450
OVA-specific IgG, Absorbance (OD450) (ovalbumin (OVA); IM injection, Day 28, dairy cows): 0.626 OD450 and 0.603 OD450 and 1.663 OD450
OVA-specific IgG, Absorbance (OD450) (ovalbumin (OVA); SQ injection, Day 0, dairy cows): 1.004 OD450 and 0.952 OD450 and 0.756 OD450
OVA-specific IgG, Absorbance (OD450) (ovalbumin (OVA); SQ injection, Day 14, dairy cows): 1.16 OD450 and 0.955 OD450 and 1.085 OD450
OVA-specific IgG, Absorbance (OD450) (ovalbumin (OVA); SQ injection, Day 21, dairy cows): 1.036 OD450 and 0.7 OD450 and 1.063 OD450
OVA-specific IgG, Absorbance (OD450) (ovalbumin (OVA); SQ injection, Day 28, dairy cows): 0.916 OD450 and 0.68 OD450 and 0.704 OD450
